# What was measured:
# [1] = confocal immunofluorescence, giantin co-staining; details: glycan lost; control: wild type
# [2] = NGI-1 overnight, R4-ICD immunoblot; details: glycan lost; control: vehicle
# [3] = active lysate incubation, R4-ICD/FGFR4 immunoblot ratio; details: glycan lost; control: wild type
# [4] = kifunensine 5 μM time course, R4-ICD immunoblot; details: glycan changed form; control: 0 h kifunensine
substance,measurement,setting,value
FGFR4: N322Q,localisation_or_trafficking,[1],no change
FGFR4: NGI-1 10 μM,other: proteolytic processing,[2],increases
FGFR4: N311Q,"other: proteolytic processing, other: relative scale 0 to 3+",[3],"decreases, ++ vs +++"
same,localisation_or_trafficking,[1],no change
FGFR4: kifunensine 8 h,other: proteolytic processing,[4],increases
FGFR4: NGI-1 100 μM,other: proteolytic processing,[2],no change
FGFR4: N290Q,"other: proteolytic processing, other: relative scale 0 to 3+",[3],"abolishes, 0 vs +++"
same,localisation_or_trafficking,[1],no change
FGFR4: kifunensine 16 h,other: proteolytic processing,[4],no change
